Measurements published in patent US20240352117A1 (QYUNS THERAPEUTICS, published 2024).

B1: QX008N (HZD8G2-57) (antibody, human IgG1, kappa, V domains shown)
VH: EVQLVESGGGLVQPGGSLRLSCAASGFSLSSYYMSWVRQAPGKGLEWVGFISYGGSAYHATWAQGRFTISKDNSKNTLYLQMNSLRAEDTAVYYCAREFRSMTYGAEWGIWGQGTLVTVSS
VL: AYQMTQSPSSVSASVGDRVTITCQASESIYDTLAWYQQKPGKAPKLLIYSASSLASGVPSRFSGSGSGTDFTLTISSLQPEDFATYYCQQGYTMPDVDKNPFGGGTKVEIKR
notes: Humanized rabbit antibody from clone 8G2; Expressed in ExpiCHO-S cells and purified with Protein A; also called humanized 8G2
B2: Tezepelumab (antibody, V domains shown)
VH: QMQLVESGGGVVQPGRSLRLSCAASGFTFRTYGMHWVRQAPGKGLEWVAVIWYDGSNKHYADSVKGRFTITRDNSKNTLNLQMNSLRAEDTAVYYCARAPQWELVHEAFDIWGQGTMVTVSS
VL: SYVLTQPPSVSVAPGQTARITCGGNNLGSKSVHWYQQKPGQAPVLVVYDDSDRPSWIPERFSGSNSGNTATLTISRGEAGDEADYYCQVWDSSSDHVVFGGGTKLTVLG

Assays:
[1] = molecular target: T1, Human thymic stromal lymphopoietin (TSLP) (human, UniProt Q969D9 29-159); test: cell-based or functional assay
[2] = molecular target: natural TSLP; test: cell-based or functional assay
[3] = molecular target: Cynomolgus monkey TSLP (cynomolgus monkey, UniProt A0A7N9CAT7 29-159); test: cell-based or functional assay
Chain of Cynomolgus monkey TSLP (A0A7N9CAT7 entry or part of it): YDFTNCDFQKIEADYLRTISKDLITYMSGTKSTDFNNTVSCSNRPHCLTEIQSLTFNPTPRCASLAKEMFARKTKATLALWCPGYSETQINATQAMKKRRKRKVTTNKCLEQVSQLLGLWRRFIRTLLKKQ

[4] = molecular target: T1, Human thymic stromal lymphopoietin …; test: SPR, Biacore T200, 25 C, antibody captured on Protein A chip, human TSLP as analyte, 1:1 model, mean of three tests
Procedure: Biacore T200 was used to detect the affinity of QX008N (HZD8G2-57) binding to human TSLP. All processes were performed at 25° C. A commercial Protein A chip was used to immobilize an appropriate amount of antibody through the capture method so that Rmax was around 50RU and the capture flow rate was 10 μl/min. The antigen was diluted by gradient, the flow rate of the instrument was switch to 30 μl/min, and the antigen flowed through the reference channel and the fixed antibody channel in order from low to high concentration, with the antigen flowing through the buffer as a negative control. After each binding and dissociation was completed, the chip was regenerated with glycine at pH 1.5. The 1:1 binding model in Kinetics option was selected for fitting using the analysis software that comes with the instrument, and the binding rate constant kₐ, the dissociation rate constant kd and the equilibrium dissociation constant KD value of the antibody were calculated.
The detection method for known antibodies was the same as that for QX008N.

Row | Binder | IC50 of inhibiting STAT5 phosphorylation in SW756-STAT5-Luciferase reporter gene cells induced by human TSLP [1] [ng/mL] | IC50 of inhibiting the release of TARC (CCL17) from PBMCs induced by human TSLP [1] [ng/mL] | IC50 of inhibiting the release of TARC (CCL17) from human whole blood induced by human TSLP [1] [ng/mL] | IC50 of inhibiting STAT5 phosphorylation in SW756-STAT5-Luciferase reporter gene cells induced by natural TSLP [2] [ng/mL] | IC50 of inhibiting STAT5 phosphorylation in SW756-STAT5-Luciferase reporter gene cells induced by Cynomolgus monkey TSLP [3] [ng/mL] | Kd [4] [nM] | koff [4] [s⁻¹] | kon [4] [M⁻¹ s⁻¹]
1 | B1 | 0.837 | 77.1 | 0.839 | 0.462 | 0.889 | 0.0175 | 2.99e-05 | 1.74e+06
2 | B2 | – | – | – | – | 1.88 | – | – | –
